Substitutions are numbered along the chain they refer to.
What was measured:
Settings in all cases: protein: recombinant, label: 5'-FAM
hRev1 full-length = target: T1, hRev1 full-length (human, UniProt Q9UBZ9 1-1251); test: fluorescence polarization; 100 mM KCl; Fluorescence polarization: 1 nM FAM-DNA, 100 mM KCl or LiCl; DNA annealed in 50 mM HEPES pH 7.5; full buffer as in cited ref 17, temperature not stated. Footprinting: 50 mM HEPES pH 7.5, 100 mM KCl, 10 uM protein, 30 uM ssDNA, room temperature
T1 sequence: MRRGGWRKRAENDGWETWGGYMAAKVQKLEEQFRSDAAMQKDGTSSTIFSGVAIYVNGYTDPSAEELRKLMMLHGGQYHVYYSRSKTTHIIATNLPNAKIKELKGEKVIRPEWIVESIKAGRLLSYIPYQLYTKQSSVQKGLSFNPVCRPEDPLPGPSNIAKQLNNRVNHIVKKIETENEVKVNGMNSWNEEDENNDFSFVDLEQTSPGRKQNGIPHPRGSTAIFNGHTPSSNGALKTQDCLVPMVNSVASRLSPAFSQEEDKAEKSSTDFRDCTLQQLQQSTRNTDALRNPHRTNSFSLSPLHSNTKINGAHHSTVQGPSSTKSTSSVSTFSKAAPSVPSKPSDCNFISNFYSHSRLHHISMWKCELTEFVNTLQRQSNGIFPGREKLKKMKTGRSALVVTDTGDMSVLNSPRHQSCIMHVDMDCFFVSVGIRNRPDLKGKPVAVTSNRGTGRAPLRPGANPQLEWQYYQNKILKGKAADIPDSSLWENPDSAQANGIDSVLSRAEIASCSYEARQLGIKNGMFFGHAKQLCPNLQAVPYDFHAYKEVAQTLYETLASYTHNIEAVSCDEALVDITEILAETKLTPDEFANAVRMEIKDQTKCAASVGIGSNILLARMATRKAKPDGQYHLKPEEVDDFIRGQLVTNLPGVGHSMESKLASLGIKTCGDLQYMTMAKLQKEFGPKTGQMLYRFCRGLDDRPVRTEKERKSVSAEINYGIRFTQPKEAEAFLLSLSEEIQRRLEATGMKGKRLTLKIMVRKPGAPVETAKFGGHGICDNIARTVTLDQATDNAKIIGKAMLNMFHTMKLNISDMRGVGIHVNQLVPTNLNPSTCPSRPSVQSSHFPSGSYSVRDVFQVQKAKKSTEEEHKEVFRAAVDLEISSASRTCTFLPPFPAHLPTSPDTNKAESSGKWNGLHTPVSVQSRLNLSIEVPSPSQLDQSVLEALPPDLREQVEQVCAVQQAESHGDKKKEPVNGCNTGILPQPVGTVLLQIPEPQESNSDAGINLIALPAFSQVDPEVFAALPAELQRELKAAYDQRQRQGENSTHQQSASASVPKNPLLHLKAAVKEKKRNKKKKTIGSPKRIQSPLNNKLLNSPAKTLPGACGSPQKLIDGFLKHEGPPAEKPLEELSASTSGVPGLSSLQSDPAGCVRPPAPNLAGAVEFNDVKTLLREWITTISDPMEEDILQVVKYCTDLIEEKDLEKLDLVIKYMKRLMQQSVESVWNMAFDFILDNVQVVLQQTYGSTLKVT

[1] = target: T2, hRev1 330-833 polymerase core (human, UniProt Q9UBZ9 330-833); test: as above
T2 sequence: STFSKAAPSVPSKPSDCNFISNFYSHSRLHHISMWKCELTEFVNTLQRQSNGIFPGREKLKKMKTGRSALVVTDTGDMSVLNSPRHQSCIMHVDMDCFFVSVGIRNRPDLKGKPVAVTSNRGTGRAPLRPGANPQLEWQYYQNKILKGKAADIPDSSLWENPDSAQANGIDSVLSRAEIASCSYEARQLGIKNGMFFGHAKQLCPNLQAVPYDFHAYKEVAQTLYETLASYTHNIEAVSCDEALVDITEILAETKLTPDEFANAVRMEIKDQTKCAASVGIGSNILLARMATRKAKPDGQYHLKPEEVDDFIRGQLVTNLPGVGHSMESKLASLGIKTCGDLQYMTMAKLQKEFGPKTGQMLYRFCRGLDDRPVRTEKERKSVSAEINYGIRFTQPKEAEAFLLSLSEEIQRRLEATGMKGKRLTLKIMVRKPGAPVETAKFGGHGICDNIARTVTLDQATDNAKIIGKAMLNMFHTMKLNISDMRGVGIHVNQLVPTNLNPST

hRev1 330-833 E466K = target: T3, hRev1 330-833 E466K (human, UniProt Q9UBZ9 330-833, E466K); test: fluorescence polarization; 100 mM KCl?; Fluorescence polarization: 1 nM FAM-DNA, 100 mM KCl or LiCl; DNA annealed in 50 mM HEPES pH 7.5; full buffer as in cited ref 17, temperature not stated. Footprinting: 50 mM HEPES pH 7.5, 100 mM KCl, 10 uM protein, 30 uM ssDNA, room temperature
T3 sequence: T2 sequence with E137K

[2] = parallel G4 (1:2:1 loops) in K+

B1: Myc 14/23 ss G4 (structured_DNA)
DNA: AGGGTGGGTAGGGTGGGTTATGAGATGAT
With B1 the Kd (hRev1 full-length; [2]) was 5 ± 1 nM, the Kd [1, 2] was 37 ± 7 nM and the Kd (hRev1 330-833 E466K; [2]) was 43 ± 16 nM.

B2: Non-G4 Myc control ss (ssDNA)
DNA: AGCGTGCGTAGCGTGCGTTATGAGATGAT
For B2, the Kd (hRev1 full-length) was 110 ± 20 nM, the Kd [1] was 910 ± 120 nM and the Kd (hRev1 330-833 E466K) was 1300 ± 300 nM.

Reference: article PMC7913688, “Human Rev1 relies on insert-2 to promote selective binding and accurate replication of stabilized G-quadruplex motifs”
